From patent US20240270846A1 (published 2024)
Residue numbers refer to the chain shown, from its start. Names and notes keep the numbering of the source.

B1: CE115HA000/GLS3000 G89L one-arm antibody (antibody, human IgG1, kappa, L234A L235A, N297A, name in Kabat numbering)
heavy: QVQLVESGGGVVQPGRSLRLSCAASGFTFSNAWMHWVRQAPGKGLEWVAQIKAKSNNYATYYAESVKGRFTISRDDSKNSLYLQMNSLKTEDTAVYYCRYVHYGAYYGVDAWGQGTTVTVSSASTKGPSVFPLAPSSKSTSGGTAALGCLVKDYFPEPVTVSWNSGALTSGVHTFPAVLQSSGLYSLSSVVTVPSSSLGTQTYICNVNHKPSNTKVDKKVEPKSCDKTHTCPPCPAPEAAGGPSVFLFPPKPKDTLMISRTPEVTCVVVDVSHEDPEVKFNWYVDGVEVHNAKTKPREEQYASTYRVVSVLTVLHQDWLNGKEYKCKVSNKALPAPIEKTISKAKGQPREPQVYTLPPSRCELTKNQVSLSCAVKGFYPSDIAVEWESNGQPENNYKTTPPVLDSDGSFFLVSKLTVDKSRWQQGNVFSCSVMHEALHNHYTQKSLSLSPDYKDDDDK
chain: EPKSSDKTHTCPPCPAPELLGGPSVFLFPPKPKDTLMISRTPEVTCVVVDVSHEDPEVKFNWYVDGVEVHNAKTKPREEQYNSTYRVVSVLTVLHQDWLNGKEYKCKVSNKALPAPIEKTISKAKGQPREPQVCTLPPSRDELTKNQVSLWCLVKGFYPSDIAVEWESNGQPENNYKTTPPVLDSDGSFFLYSKLTVDKSRWQQGNVFSCSVMHEALHNRYTQKSLSLSP
light: DIVMTQSPLSLPVTPGEPASISCRSSQSLVHSNRNTYLHWYQQKPGQAPRLLIYKVSNRFSGVPDRFSGSGSGTDFTLKISRVEAEDVGVYYCLQGTQVPYTFGQGTKLEIKRTVAAPSVFIFPPSDEQLKSGTASVVCLLNNFYPREAKVQWKVDNALQSGNSQESVTEQDSKDSTYSLSSTLTLSKADYEKHKVYACEVTHQGLSSPVTKSFNRGEC
notes: one-arm IgG1
B2: CE115HA000/GLS3000 G91E one-arm antibody (antibody, human IgG1, kappa, L234A L235A, N297A, name in Kabat numbering)
heavy: B1 heavy
chain: B1 chain
light: B1 light with L94G, G96E
notes: one-arm IgG1
B3: CE115HA000/GLS3000 H34N one-arm antibody (antibody, human IgG1, kappa, L234A L235A, N297A, name in Kabat numbering)
heavy: B1 heavy
chain: B1 chain
light: B1 light with H39N, L94G
notes: one-arm IgG1
B4: CE115HA000/GLS3000 K107E one-arm antibody (antibody, human IgG1, kappa, L234A L235A, N297A, name in Kabat numbering)
heavy: B1 heavy
chain: B1 chain
light: B1 light with L94G, K112E
notes: one-arm IgG1
B5: CE115HA000/GLS3000 H34Y one-arm antibody (antibody, human IgG1, kappa, L234A L235A, N297A, name in Kabat numbering)
heavy: B1 heavy
chain: B1 chain
light: B1 light with H39Y, L94G
notes: one-arm IgG1
B6: CE115HA000/GLS3000 K50E one-arm antibody (antibody, human IgG1, kappa, L234A L235A, N297A, name in Kabat numbering)
heavy: B1 heavy
chain: B1 chain
light: B1 light with K55E, L94G
notes: one-arm IgG1
B7: CE115HA000/GLS3000 H34S one-arm antibody (antibody, human IgG1, kappa, L234A L235A, N297A, name in Kabat numbering)
heavy: B1 heavy
chain: B1 chain
light: B1 light with H39S, L94G
notes: one-arm IgG1
B8: CE115HA000/GLS3000 K50R one-arm antibody (antibody, human IgG1, kappa, L234A L235A, N297A, name in Kabat numbering)
heavy: B1 heavy
chain: B1 chain
light: B1 light with K55R, L94G
notes: one-arm IgG1
B9: CE115HA000/GLS3000 K50P one-arm antibody (antibody, human IgG1, kappa, L234A L235A, N297A, name in Kabat numbering)
heavy: B1 heavy
chain: B1 chain
light: B1 light with K55P, L94G
notes: one-arm IgG1
B10: CE115HA000/GLS3000 H34E one-arm antibody (antibody, human IgG1, kappa, L234A L235A, N297A, name in Kabat numbering)
heavy: B1 heavy
chain: B1 chain
light: B1 light with H39E, L94G
notes: one-arm IgG1
B11: CE115HA000/GLS3000 H34K one-arm antibody (antibody, human IgG1, kappa, L234A L235A, N297A, name in Kabat numbering)
heavy: B1 heavy
chain: B1 chain
light: B1 light with H39K, L94G
notes: one-arm IgG1
B12: CE115HA000/GLS3000 H34P one-arm antibody (antibody, human IgG1, kappa, L234A L235A, N297A, name in Kabat numbering)
heavy: B1 heavy
chain: B1 chain
light: B1 light with H39P, L94G
notes: one-arm IgG1
B13: CE115HA000/GLS3000 H34L one-arm antibody (antibody, human IgG1, kappa, L234A L235A, N297A, name in Kabat numbering)
heavy: B1 heavy
chain: B1 chain
light: B1 light with H39L, L94G
notes: one-arm IgG1
B14: CE115HA000/GLS3000 H34D one-arm antibody (antibody, human IgG1, kappa, L234A L235A, N297A, name in Kabat numbering)
heavy: B1 heavy
chain: B1 chain
light: B1 light with H39D, L94G
notes: one-arm IgG1
B15: CE115HA000/GLS3000 K50G one-arm antibody (antibody, human IgG1, kappa, L234A L235A, N297A, name in Kabat numbering)
heavy: B1 heavy
chain: B1 chain
light: B1 light with K55G, L94G
notes: one-arm IgG1
B16: CE115HA000/GLS3000 K50Q one-arm antibody (antibody, human IgG1, kappa, L234A L235A, N297A, name in Kabat numbering)
heavy: B1 heavy
chain: B1 chain
light: B1 light with K55Q, L94G
notes: one-arm IgG1
B17: CE115HA000/GLS3000 H34W one-arm antibody (antibody, human IgG1, kappa, L234A L235A, N297A, name in Kabat numbering)
heavy: B1 heavy
chain: B1 chain
light: B1 light with H39W, L94G
notes: one-arm IgG1
B18: CE115HA000/GLS3000 H34I one-arm antibody (antibody, human IgG1, kappa, L234A L235A, N297A, name in Kabat numbering)
heavy: B1 heavy
chain: B1 chain
light: B1 light with H39I, L94G
notes: one-arm IgG1
B19: CE115HA000/GLS3000 K50D one-arm antibody (antibody, human IgG1, kappa, L234A L235A, N297A, name in Kabat numbering)
heavy: B1 heavy
chain: B1 chain
light: B1 light with K55D, L94G
notes: one-arm IgG1
B20: CE115HA000/GLS3000 G91A one-arm antibody (antibody, human IgG1, kappa, L234A L235A, N297A, name in Kabat numbering)
heavy: B1 heavy
chain: B1 chain
light: B1 light with L94G, G96A
notes: one-arm IgG1
B21: CE115HA000/GLS3000 K50T one-arm antibody (antibody, human IgG1, kappa, L234A L235A, N297A, name in Kabat numbering)
heavy: B1 heavy
chain: B1 chain
light: B1 light with K55T, L94G
notes: one-arm IgG1
B22: CE115HA000/GLS3000 H34V one-arm antibody (antibody, human IgG1, kappa, L234A L235A, N297A, name in Kabat numbering)
heavy: B1 heavy
chain: B1 chain
light: B1 light with H39V, L94G
notes: one-arm IgG1
B23: CE115HA000/GLS3000 K50S one-arm antibody (antibody, human IgG1, kappa, L234A L235A, N297A, name in Kabat numbering)
heavy: B1 heavy
chain: B1 chain
light: B1 light with K55S, L94G
notes: one-arm IgG1
B24: CE115HA000/GLS3000 H34M one-arm antibody (antibody, human IgG1, kappa, L234A L235A, N297A, name in Kabat numbering)
heavy: B1 heavy
chain: B1 chain
light: B1 light with H39M, L94G
notes: one-arm IgG1
B25: CE115HA000/GLS3000 K50L one-arm antibody (antibody, human IgG1, kappa, L234A L235A, N297A, name in Kabat numbering)
heavy: B1 heavy
chain: B1 chain
light: B1 light with K55L, L94G
notes: one-arm IgG1
B26: CE115HA000/GLS3000 H34T one-arm antibody (antibody, human IgG1, kappa, L234A L235A, N297A, name in Kabat numbering)
heavy: B1 heavy
chain: B1 chain
light: B1 light with H39T, L94G
notes: one-arm IgG1
B27: CE115HA000/GLS3000 G89M one-arm antibody (antibody, human IgG1, kappa, L234A L235A, N297A, name in Kabat numbering)
heavy: B1 heavy
chain: B1 chain
light: B1 light with L94M
notes: one-arm IgG1
B28: CE115HA000/GLS3000 G89N one-arm antibody (antibody, human IgG1, kappa, L234A L235A, N297A, name in Kabat numbering)
heavy: B1 heavy
chain: B1 chain
light: B1 light with L94N
notes: one-arm IgG1
B29: CE115HA000/GLS3000 H34G one-arm antibody (antibody, human IgG1, kappa, L234A L235A, N297A, name in Kabat numbering)
heavy: B1 heavy
chain: B1 chain
light: B1 light with H39G, L94G
notes: one-arm IgG1
B30: CE115HA000/GLS3000 K50Y one-arm antibody (antibody, human IgG1, kappa, L234A L235A, N297A, name in Kabat numbering)
heavy: B1 heavy
chain: B1 chain
light: B1 light with K55Y, L94G
notes: one-arm IgG1
B31: CE115HA000/GLS3000 H34Q one-arm antibody (antibody, human IgG1, kappa, L234A L235A, N297A, name in Kabat numbering)
heavy: B1 heavy
chain: B1 chain
light: B1 light with H39Q, L94G
notes: one-arm IgG1
B32: CE115HA000/GLS3000 G91D one-arm antibody (antibody, human IgG1, kappa, L234A L235A, N297A, name in Kabat numbering)
heavy: B1 heavy
chain: B1 chain
light: B1 light with L94G, G96D
notes: one-arm IgG1
B33: CE115HA000/GLS3000 H34F one-arm antibody (antibody, human IgG1, kappa, L234A L235A, N297A, name in Kabat numbering)
heavy: B1 heavy
chain: B1 chain
light: B1 light with H39F, L94G
notes: one-arm IgG1

biological target: T1, CD3 epsilon homodimer protein (UniProt P07766 23-126); assay: SPR (Biacore T200), CD3e homodimer on CM4 chip, antibody as analyte; KD ratio vs unaltered GLS3000;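 further: CD3 epsilon homodimer amine-coupled to the sensor surface, antibodies injected as analyte at 25 °C with HBS-EP+ running buffer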
T1 construct: also called CD3 (CD3 epsilon)
T1 sequence (P07766 23-126): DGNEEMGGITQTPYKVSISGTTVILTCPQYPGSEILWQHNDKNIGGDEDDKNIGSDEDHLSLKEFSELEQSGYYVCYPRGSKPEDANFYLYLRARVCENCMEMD

| Binder | KD ratio to GLS3000 [ratio] |
| --- | --- |
| B1 | 2.38 |
| B2 | 48.5 |
| B3 | 2.84 |
| B4 | 0.95 |
| B5 | 2.44 |
| B6 | 57.2 |
| B7 | 1.24 |
| B8 | 1.83 |
| B9 | 27.7 |
| B10 | 8.03 |
| B11 | 4.1 |
| B12 | 1.22 |
| B13 | 1.03 |
| B14 | 2100 |
| B15 | 42.4 |
| B16 | 8.13 |
| B17 | 8.45 |

| Binder | KD ratio to GLS3000 [ratio] |
| --- | --- |
| B18 | 0.89 |
| B19 | 114 |
| B20 | 28.1 |
| B21 | 25.1 |
| B22 | 1.04 |
| B23 | 45.3 |
| B24 | 3.16 |
| B25 | 36.4 |
| B26 | 1.1 |
| B27 | 1.96 |
| B28 | 1.2 |
| B29 | 1.08 |
| B30 | 195 |
| B31 | 4.6 |
| B32 | 44.8 |
| B33 | 3.5 |
